Laboratory results published in patent publication US20250152627A1 (published 2025).

Columns and labels:
[1] = biological target: IgK leader-ALFA Tag-RR Zip-Myc Tag-PDGFRβ TM-sfGFP; assay: flow cytometry cell binding
[2] = biological target: IgK leader-ALFA Tag-RR Zip-Myc Tag-PDGFRβ TM-sfGFP; assay: flow

B1: AM0627-35 aa Linker-EE Zip (enzyme)
chain: ANTPEHIGNDLKLFKDSSCTSLKPDVKNTSAFQSDAMKELATKILAGHYKPDYLYAEYRALPSPRQTGKNLRIGDGFSKYDNMTGVYLEKGRHVVLVGKTEGQEISLLLPNLMRKPAEGVQPTKDPNGWGLHKKQIPLKEGINIIDVETPANAYISYFTEDAGKAPKIPVHFVTGKANGYFDTTRGDTNKDWVRLLDQAVSPIMDARGKYIQVAYPVEFLKKFTKDRGTELINAYDKLIGIQYQLMGLDKYGKIPENRVLARVNFNYYMFRDGDGVAYLGNDGTMRMVTDPENVLKGDACWGFSHEVGHVMQMRPMTWGGMTEVSNNIFSLQAAAKTGNESRLKRQGSYDKARKEIIEGEIAYLQSKDVFNKLVPLWQLHLYFTKNGHPDFYPDVMEYLRNNAGNYGGNDTVKYQFEFVKACCDVTKTDLTDFFEKWGFFKPGKFHIGDYAQYDFNVTPEMVEETKKWIAGKGYPKPETDITELSEGGGGSGGGGSGGGGSGGGGSGGGGSGGGGSGGGGSMDPDLEIEAAFLERENTALETRVAELRQRVQRLRNRVSQYRTRYGPLGGGK
- Kd [1]: ~0.45 nM

B2: BT4244-35 aa Linker-EE Zip (enzyme)
chain: FSISEEYLIQNLDKSSTSVQIPINTSMELAQWSVSYEANWLQCSKQKTAAEGTFLRITVNENTGETKRTANIKVTSTTATYTITVNQYAKGEVIVEGDIKVTPTGGKASEHQEGQDIENTYDGKFSTDGAAPFHTPWGQSAKFPVTLEYYFKGDTEIDYLIYYTRSGNGNFGKVKVYTTTNPDRSDYTLQGEYDFKEQNAPSKVSFSEGIKATGIKFEVLSGLGDFVSCDEMEFYKTNTDKTLDKQLLTVFTDITCTEIKNNVTNEQIQALPDYFVRIAEAVRDNTYDKWEKEFRIRSYEPYSNIAEWADKLMTKKYSDLDNPTGISVKAGDDIIVLVGDTYGQNISMQCIWETGTEYKQTASSGDVYMLNPGVNKLTMKGEGQLFVMYNTELTSNTAKPIKIHIPLGSGTVNGFFDLKEHKTDEKYAELLKKSTHKYFCIRGEKIMFYFHRNKLLEYVPNNILSAIHLWDNIVGWQQELMGIDDVRPSQVNNHLFAISPEGSYMWASDYQIGFVYTYLGNILLEDNVMAAEDNAWGPAHEIGHVHQAAINWASSTESSNNLFSNFIIYKLGKYKSRGNGLGSVATARYANGQAWYNMGDATHQNEDTETHMRMNWQLWIYYHRCEYKTDFWQTLFKLMREVNMTEGEDPGKKQLEFAKMASKAANQNLTDFFEMWGFFEPVNTTIEQYGTYKYYVSDAMIREAKEYMAQFPAPKHAFQYIEDRKKSEFPSNDYRYSAVGDVGYYTQFKENQKITKAITAELAGRKVSIQNGDEAVAFELRENDENGKLLYFSTFTTFEIPSSILMGGGGSGGGGSGGGGSGGGGSGGGGSGGGGSGGGGSMDPDLEIEAAFLERENTALETRVAELRQRVQRLRNRVSQYRTRYGPLGGGK
- Kd [1]: ~2.54 nM

B3: StcE ΔX409-35 aa Linker-EE Zip (enzyme)
chain: ADNNSAIYFNTSQPINDLQGSLAAEVKFAQSQILPAHPKEGDSQPHLTSLRKSLLLVRPVKADDKTPVQVEARDDNNKILGTLTLYPPSSLPDTIYHLDGVPEGGIDFTPHNGTKKIINTVAEVNKLSDASGSSIHSHLTNNALVEIHTANGRWVRDIYLPQGPDLEGKMVRFVSSAGYSSTVFYGDRKVTLSVGNTLLFKYVNGQWFRSGELENNRITYAQHIWSAELPAHWIVPGLNLVIKQGNLSGRLNDIKIGAPGELLLHTIDIGMLTTPRDRFDFAKDKEAHREYFQTIPVSRMIVNNYAPLHLKEVMLPTGELLTDMDPGNGGWHSGTMRQRIGKELVSHGIDNANYGLNSTAGLGENSHPYVVAQLAAHNSRGNYANGIQVHGGSGGGGIVTLDSTLGNEFSHEVGHNYGLGHYVDGFKGSVHRSAENNNSTWGWDGDKKRFIPNFYPSQTNEKSCLNNQCQEPFDGHKFGFDAMAGGSPFSAANRFTMYTPNSSAIIQRFFENKAVFDSRSSTGFSKWNADTQEMEPYEHTIDRAEQITASVNELSESKMAELMAEYAVVKVHMWNGNWTRNIYIPTASADNRGSILTINHEAGYNSYLFINGDEKVVSQGYKKSFVSDGQFWKERDVVDTREARKPEQFGVPVTTLVGYYDPEGTLSSYIYPAMYGAYGFTYSDDSQNLSDNDCQLQVDTKEGQLRFRLANHRANNTVMNKFHINVPTESQPTQATLVCNNKILDTKSLTPAPEGLTYTVNGGGGSGGGGSGGGGSGGGGSGGGGSGGGGSGGGGSMDPDLEIEAAFLERENTALETRVAELRQRVQRLRNRVSQYRTRYGPLGGGK
- Kd [2]: ~3.09 nM
